{"source": "patent US20100172925A1", "about": "“HLA-A2-RESTRICTED T-CELL EPITOPES OF THE RESPIRATORY SYNCYTIAL VIRUS FUSION PROTEIN AS PEPTIDE-BASED VACCINES” (priority 2009, published 2010)", "data": [{"biological_target": "HLA-A*0201 molecule on human T2 cells (human)", "test": "not given", "values": [{"binder": "TLLLWVLLL (modifications not checked)", "note": "[RSV F peptide No. 1 (F5-13)]", "MFI above baseline (% higher than the baseline)": 10}]}, {"biological_target": "HLA-A*0201 molecule on human T2 cells (human)", "test": "T2-based binding assay, flow cytometry with FITC anti-HLA-A2", "values": [{"binder": "KIMTSKTDV (modifications not checked)", "note": "[RSV F peptide No. 17 (F417-425)]", "MFI ratio (ratio to the negative control)": 0.91}]}, {"biological_target": "HLA-A*0201 molecule on human T2 cells (human)", "test": "T2 cell-stabilization assay, flow cytometry with FITC anti-HLA-A2, peptide 50 µg/mL", "values": [{"binder": "KVLDLKNYI (modifications not checked)", "note": "[RSV F peptide No. 13 (F214-222)]", "MFI above baseline (% higher than the baseline)": 10}, {"binder": "SVGNTLYYV (modifications not checked)", "note": "[RSV F peptide No. 18 (F474-482)]", "MFI above baseline (% higher than the baseline)": 10}, {"binder": "LLSTNKAVV (modifications not checked)", "note": "[RSV F peptide No. 9 (F194-202)]", "MFI ratio (fold of the negative control)": 1.5}, {"binder": "LMSNNVQIV (modifications not checked)", "note": "[RSV F peptide No. 16 (F296-304)]", "MFI ratio (fold of the negative control)": 1.5}, {"binder": "AITTILAAV (modifications not checked)", "note": "[RSV F peptide No. 3 (F33-41)]", "MFI ratio (fold of the negative control)": 1.5}, {"binder": "KLMSNNVQI (modifications not checked)", "note": "[RSV F peptide No. 15 (F295-303)]", "MFI ratio (fold of the negative control)": 1.5}, {"binder": "LLSLIAVGL (modifications not checked)", "note": "[RSV F peptide No. 24 (F561-569)]", "MFI ratio (fold of the negative control)": 1.5}, {"binder": "VILLSLIAV (modifications not checked)", "note": "[RSV F peptide No. 23 (F559-567)]", "MFI ratio (fold of the negative control)": 1.5}, {"binder": "YMLTNSELL (modifications not checked)", "note": "[RSV F peptide No. 14 (F273-281)]", "MFI ratio (fold of the negative control)": 1.5}, {"binder": "SLIAVGLLL (modifications not checked)", "note": "[RSV F peptide No. 25 (F563-571)]", "MFI above baseline (% higher than the baseline)": 10}, {"binder": "FLLGVGSAI (modifications not checked)", "note": "[RSV F peptide No. 6 (F163-171)]", "MFI above baseline (% higher than the baseline)": 10}, {"binder": "ALLSTNKAV (modifications not checked)", "note": "[RSV F peptide No. 8 (F193-201)]", "MFI above baseline (% higher than the baseline)": 10}]}]}
